# In patent US20090252717:
# Assays:
# [1] = molecular target: KHC-584 (first 584 amino acids of rat KHC, expressed in E. coli) (UniProt Q2PQA9)
# [2] = molecular target: immunoprecipitated endogenous mouse brain kinesin-1 (UniProt Q61768)
# Sequence of immunoprecipitated endogenous mouse brain kinesin-1 (Q61768 whole entry, looked up): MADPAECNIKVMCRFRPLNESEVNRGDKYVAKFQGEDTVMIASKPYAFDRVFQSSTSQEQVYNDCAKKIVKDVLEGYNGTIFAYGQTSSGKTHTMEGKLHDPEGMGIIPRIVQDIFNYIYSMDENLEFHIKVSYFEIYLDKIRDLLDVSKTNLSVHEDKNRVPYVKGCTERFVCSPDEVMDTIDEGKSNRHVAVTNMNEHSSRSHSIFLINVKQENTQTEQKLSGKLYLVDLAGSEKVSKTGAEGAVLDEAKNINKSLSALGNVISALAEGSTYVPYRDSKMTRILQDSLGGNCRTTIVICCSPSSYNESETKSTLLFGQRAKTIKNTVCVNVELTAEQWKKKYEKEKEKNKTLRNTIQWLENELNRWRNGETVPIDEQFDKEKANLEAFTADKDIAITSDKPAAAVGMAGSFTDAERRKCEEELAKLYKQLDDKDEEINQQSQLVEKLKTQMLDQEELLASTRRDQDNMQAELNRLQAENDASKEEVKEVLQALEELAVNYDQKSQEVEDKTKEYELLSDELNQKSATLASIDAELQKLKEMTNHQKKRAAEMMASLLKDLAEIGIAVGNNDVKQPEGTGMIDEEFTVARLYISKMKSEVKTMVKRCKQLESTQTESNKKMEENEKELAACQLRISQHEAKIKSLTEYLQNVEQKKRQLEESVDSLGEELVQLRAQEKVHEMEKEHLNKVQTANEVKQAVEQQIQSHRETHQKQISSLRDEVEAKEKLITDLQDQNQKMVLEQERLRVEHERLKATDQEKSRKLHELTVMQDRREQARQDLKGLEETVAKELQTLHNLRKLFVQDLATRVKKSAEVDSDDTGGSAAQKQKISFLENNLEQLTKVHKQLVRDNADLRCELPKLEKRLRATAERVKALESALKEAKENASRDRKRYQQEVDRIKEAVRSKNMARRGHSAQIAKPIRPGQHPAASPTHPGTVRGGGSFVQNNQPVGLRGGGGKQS
# Sequence of recombinant 6-His-tagged JNK3 kinase (JNK3/SAPK1b, Upstate Biotechnology) (P53779 whole entry): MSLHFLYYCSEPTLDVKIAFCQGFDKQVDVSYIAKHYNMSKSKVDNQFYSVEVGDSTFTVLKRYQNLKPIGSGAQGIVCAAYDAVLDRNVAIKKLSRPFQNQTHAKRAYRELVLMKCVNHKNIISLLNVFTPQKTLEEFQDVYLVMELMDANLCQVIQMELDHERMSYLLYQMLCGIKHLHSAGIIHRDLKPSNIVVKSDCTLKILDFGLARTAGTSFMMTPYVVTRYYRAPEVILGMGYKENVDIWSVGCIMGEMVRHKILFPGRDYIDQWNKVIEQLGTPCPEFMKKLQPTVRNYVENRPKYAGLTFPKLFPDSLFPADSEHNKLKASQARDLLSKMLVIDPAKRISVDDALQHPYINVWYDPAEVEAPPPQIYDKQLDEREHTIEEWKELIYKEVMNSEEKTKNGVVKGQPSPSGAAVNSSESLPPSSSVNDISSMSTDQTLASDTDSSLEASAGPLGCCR
# Sequence of KHC-584 (first 584 amino acids of rat KHC, expressed in E. coli) (Q2PQA9 1-584): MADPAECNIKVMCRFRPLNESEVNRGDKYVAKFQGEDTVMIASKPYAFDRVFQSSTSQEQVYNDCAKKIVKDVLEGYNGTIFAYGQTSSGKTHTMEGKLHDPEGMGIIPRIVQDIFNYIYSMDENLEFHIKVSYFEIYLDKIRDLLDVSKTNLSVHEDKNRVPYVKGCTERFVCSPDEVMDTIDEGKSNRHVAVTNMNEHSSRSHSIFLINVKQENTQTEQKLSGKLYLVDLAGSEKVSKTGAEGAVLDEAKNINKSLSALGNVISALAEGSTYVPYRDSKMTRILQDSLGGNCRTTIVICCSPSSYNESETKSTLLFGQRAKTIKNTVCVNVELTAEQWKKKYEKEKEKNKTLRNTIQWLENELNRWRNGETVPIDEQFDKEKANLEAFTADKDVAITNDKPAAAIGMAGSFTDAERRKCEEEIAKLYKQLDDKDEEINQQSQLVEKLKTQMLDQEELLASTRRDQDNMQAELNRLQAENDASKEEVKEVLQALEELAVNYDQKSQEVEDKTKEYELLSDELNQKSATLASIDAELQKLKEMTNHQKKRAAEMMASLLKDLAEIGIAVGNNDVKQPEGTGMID
substance,measurement,setting,value
"recombinant 6-His-tagged JNK3 kinase (JNK3/SAPK1b, Upstate Biotechnology)",in vitro kinase assay (32P incorporation),[1],both recombinant KHC and immunoprecipitated endogenous mouse brain kinesin-1 KHC could be phosphorylated by recombinant JNK
same,"in vitro phosphorylation, mass spectrometry of tryptic peptides",[1],A single tryptic peptide was identified with evidence of phosphorylation
same,in vitro kinase assay (32P incorporation),[2],both recombinant KHC and immunoprecipitated endogenous mouse brain kinesin-1 KHC could be phosphorylated by recombinant JNK
same,"in vitro phosphorylation, autoradiogram",[2],"Autoradiograms showed 32P incorporation in KHCs, but not KLCs"
